Results: paper PMC8809517, “Cofactor-independent RNA editing by a synthetic S-type PPR protein”
Where a chain is given by its changes, count along the chain named.

Legend:
Assay in all cases: high-throughput RNA pulldown from lysate on Ni-NTA beads; HRP: 50 mM Tris pH 8, 150 mM NaCl, 1 mM beta-mercaptoethanol, 50 ug/ml BSA, 3 ug/ml yeast RNA, 0.5% heparin; ITC and FP: Tris pH 8, 200 mM KCl, 5% glycerol; MST: 50 mM Tris pH 8, 200 mM NaCl, 1 mM DTT, BSA, heparin, 0.05% Tween 20
Details in all cases: tags: N-terminal His-eGFP
[1] = target: T1, GFP-9S library array, motif 4 ND N98Y;D124Q (synthetic construct, N98Y;D124Q)
T1 chain: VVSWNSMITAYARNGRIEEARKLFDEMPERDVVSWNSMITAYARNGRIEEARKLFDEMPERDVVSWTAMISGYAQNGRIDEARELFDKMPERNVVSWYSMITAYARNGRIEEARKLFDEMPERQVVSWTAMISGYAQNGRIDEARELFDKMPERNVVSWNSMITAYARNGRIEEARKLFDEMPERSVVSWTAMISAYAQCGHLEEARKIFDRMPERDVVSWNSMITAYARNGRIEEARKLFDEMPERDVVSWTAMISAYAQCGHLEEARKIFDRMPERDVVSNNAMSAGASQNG

[2] = target: T2, GFP-9S library array, motif 4 ND N98Y;D124M (synthetic construct, N98Y;D124M)
T2 chain: T1 chain with Q124M

[3] = target: T3, GFP-9S library array, motif 4 ND N98T;D124V (synthetic construct, N98T;D124V)
T3 chain: T1 chain with Y98T, Q124V

[4] = target: T4, GFP-9S library array, motif 4 ND N98L;D124H (synthetic construct, N98L;D124H)
T4 chain: T1 chain with Y98L, Q124H

[5] = target: T5, GFP-9S library array, motif 4 ND N98F;D124W (synthetic construct, N98F;D124W)
T5 chain: T1 chain with Y98F, Q124W

Row | Binder | Kd ([1]; label: 5' IRDye 800CW) [nM] | Kd ([2]; label: 5' IRDye 800CW) [nM] | Kd ([3]; label: 5' IRDye 800CW) [nM] | Kd ([4]; label: 5' IRDye 800CW) [nM] | Kd ([5]; label: 5' IRDye 800CW) [nM] | Kd ([1]; label: 5' Cy5) [nM] | Kd ([2]; label: 5' Cy5) [nM] | Kd ([3]; label: 5' Cy5) [nM] | Kd ([4]; label: 5' Cy5) [nM] | Kd ([5]; label: 5' Cy5) [nM]
1 | AUUAUACGUGA (ssRNA) [IR-rpoA-U] | 103 | 154 | 140 | 125 | 364 | – | – | – | – | –
2 | AUUACACGUGA (ssRNA) [Cy5-rpoA] | – | – | – | – | – | 39.5 | 40.8 | 95.8 | 179 | 99.3
3 | AUUAGACGUGA (ssRNA) [Cy5-rpoA-G] | – | – | – | – | – | 49.8 | 36.2 | 85.6 | 196 | 72.2
4 | AUUAAACGUGA (ssRNA) [IR-rpoA-A] | 162 | 124 | 31.1 | 399 | 236 | – | – | – | – | –
